The experiment deals with GST-obscurin-PH (human) (UniProt Q5VST9). In words: SPR; Biacore 3000; GST-obscurin-PH immobilised on a CM5 chip, HIS-PI3K-p85/SH3 as analyte at 8-250 nM, 20 ul/min, 180 s association, 180 s dissociation; 1:1 Langmuir model.
UniProt Q5VST9, sequence (Q5VST9 5895-6004): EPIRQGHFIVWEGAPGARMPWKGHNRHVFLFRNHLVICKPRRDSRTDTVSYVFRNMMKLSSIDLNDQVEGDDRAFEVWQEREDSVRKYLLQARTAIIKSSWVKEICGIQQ

The term Kd denotes a measure of binding affinity in units of concentration. As for “HIS-PI3K/p85-SH3 (from UniProt O00459 4-80) (domain or fragment)”, the Kd was determined as 50 nM.
